What was measured:
Format in all cases: biochemical
[1] = HTP-analysis of yeast culture supernatants, no challenge (MUGal hydrolysis); settings: activity of the variant/activity of Rd3BB (SEQ ID NO: 13)
Summary of the method: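 Activity read as 4-methylumbelliferyl α-D-galactopyranoside hydrolysis: fluorescence (355/448 nm) after sodium carbonate stop, following 30-180 min at 37° C with 2 mM MUGal stock at pH 4.6–4.8. Enzyme source is unchallenged culture supernatant of INVSc1 yeast expressing GLA variants, grown 66-84 h at 30° C.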

[2] = HTP-analysis of supernatants pretreated with base (MUGal hydrolysis); settings: activity of the variant/activity of Rd3BB (SEQ ID NO: 13); challenge at pH 9.7
Summary of the method: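 GLA variants secreted from yeast INVSc1; culture supernatants pre-incubated with McIlvaine buffer pH 7.0–8.2 or 200 mM bicarbonate pH 9.1–9.7 at 37° C. for 1–18 h. Residual activity: MUGal (4 mM stock) hydrolysis at pH 4.3–4.8, 37° C., 30–180 min, carbonate quench; fluorescence Ex 355/Em 448 nm.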

[3] = HTP-analysis of supernatants pretreated with acid (MUGal hydrolysis); settings: activity of the variant/activity of Rd3BB (SEQ ID NO: 13); challenge at pH 3.7
Summary of the method: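 MUGal hydrolysis was tracked by fluorescence (Ex 355 nm, Em 448 nm) after a 30-180 min reaction at 37° C. in pH 4.8 McIlvaine/citrate buffer, stopped with 1 M sodium carbonate. Beforehand, yeast (INVSc1) culture supernatants carrying GLA variants were held 1-3 h at 37° C. in acidic McIlvaine buffer, pH 3.3-4.3.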

Molecule	Relative Activity of GLA Variants After No Challenge (NC) [1]	Relative Activity of GLA Variants After Challenge at pH 9.7 [2]	Relative Activity of GLA Variants After Challenge at pH 3.7 [3]
598 (protein, Synthetic Polypeptide sequence of Variant No. 598 of mature Human GLA) LDNGLARTPTMGWLHWERFMCNLDCQEEPDSCISEKLFMEMAERMVSEGWKDAGYEYLCIDDCWMAPQRDSEGRLQADPQRFPHGIRQLANHVHSKGLKLGIYADVGNKTCAGFPGSFGHYDIDAQTFADWGVDLLKFDGCYCDSLENLADGYKHMSLALNRTGRSIVYSCEWPLYMWPFQKPNYTEIRQYCNHWRNFADIDDSWASIKSILDWTSRNQERIVDVAGPGGWNDPDMLVIGNFGLSWDQQVTQMALWAIMAAPLFMSNDLRHISPQAKALLQDKDVIAINQDPLGKQGYQLRKGDNFEVWERPLSGDAWAVAIINRQEIGGPRSYTIPVASLGKGVACNPACFITQLLPVKRQLGFYNWTSRLKSHINPTGTVLLQLENTMQMSLKDLL	+ (+ = 1.5 to 5 relative activity over Rd3BB (SEQ ID NO: 13))	++ (++ = >5 to 10 relative activity over Rd3BB (SEQ ID NO: 13))	+ (+ = 1.5 to 5 relative activity over Rd3BB (SEQ ID NO: 13))
600 (protein, Synthetic Polypeptide sequence of Variant No. 600 of mature Human GLA) LDNGLARTPTMGWLHWERFMCNLDCQEEPDSCISEKLFMEMAERMVSEGWKDAGYEYLCIDDCWMAPQRDSEGRLQADPQRFPHGIRQLANHVHSKGLKLGIYADVGNKTCAGFPGSFGSYDIDAQTFADWGVDLLKFDGCYCDSLENLADGYKHMSLALNRTGRSIVYSCEWPLYMWPFQKPNYTEIRQYCNHWRNFADIDDSWASIKSILDWTSRNQERIVDVAGPGGWNDPDMLVIGNFGLSWDQQVTQMALWAIMAAPLFMSNDLRHISPQAKALLQDKDVIAINQDPLGKQGYQLRKGDNFEVWERPLSGDAWAVAIINRQEIGGPRSYTIPVASFGKGVACNPACFITQLLPVKRQLGFYNWTSRLKSHINPTGTVLLQLENTMQMSLKDLL	+ (+ = 1.5 to 5 relative activity over Rd3BB (SEQ ID NO: 13))	+ (+ = 1.5 to 5 relative activity over Rd3BB (SEQ ID NO: 13))	+++ (+++ = >10 relative activity over Rd3BB (SEQ ID NO: 13))
599 (protein, Synthetic Polypeptide sequence of Variant No. 599 of mature Human GLA) LDNGLARTPTMGWLHWERFMCNLDCQEEPDSCISEKLFMEMAERMVSEGWKDAGYEYLCIDDCWMAPQRDSEGRLQADPQRFPHGIRQLANHVHSKGLKLGIYADVGNKTCAGFPGSFGSYDIDAQTFADWGVDLLKFDGCYCDSLENLADGYKHMSLALNRTGRSIVYSCEWPLYMWPFQKPNYTEIRQYCNHWRNFADIDDSWASIKSILDWTSRNQERIVDVAGPGGWNDPDMLVIGNFGLSWDQQVTQMALWAIMAAPLFMSNDLRHISPQAKALLQDKDVIAINQDPLGKQGYQLRKGDNFEVWERPLSGDAWAVAIINRQEIGGPRSYTIPVASLGKGVACNPACFITQLLPVKRQLGFYNWTSRLKSHINPTGTVLLQLENTMQMSLKDLL	+ (+ = 1.5 to 5 relative activity over Rd3BB (SEQ ID NO: 13))	++ (++ = >5 to 10 relative activity over Rd3BB (SEQ ID NO: 13))	+ (+ = 1.5 to 5 relative activity over Rd3BB (SEQ ID NO: 13))

— patent US11278600B2, “Human alpha-galactosidase variants” (Codexis, Inc., priority 2014, dated 2022)
